# Literature values, collected in patent US20080031874A1, “Treatment of endotoxemia using endotoxin neutralizing agents” (priority 2006, published 2008).
# B1: LBP: glycoprotein present in serum that recognizes the lipid A region of LPS (protein, UniProt P18428 26-481, looked up)
# Lipopolysaccharide-binding …: ANPGLVARITDKGLQYAAQEGLLALQSELLRITLPDFTGDLRIPHVGRGRYEFHSLNIHSCELLHSALRPVPGQGLSLSISDSSIRVQGRWKVRKSFFKLQGSFDVSVKGISISVNLLLGSESSGRPTVTASSCSSDIADVEVDMSGDLGWLLNLFHNQIESKFQKVLESRICEMIQKSVSSDLQPYLQTLPVTTEIDSFADIDYSLVEAPRATAQMLEVMFKGEIFHRNHRSPVTLLAAVMSLPEEHNKMVYFAISDYVFNTASLVYHEEGYLNFSITDDMIPPDSNIRLTTKSFRPFVPRLARLYPNMNLELQGSVPSAPLLNFSPGNLSVDPYMEIDAFVLLPSSSKEPVFRLSVATNVSATLTFNTSKITGFLKPGKVKVELKESKVGLFNAELLEALLNYYILNTFYPKFNDKLAEGFPLPLLKRVQLYDLGLQIHKDFLFLGANVQYMRV
molecule,measurement,setting,value
B1,complexes with rough and smooth form LPS,,"high affinity, 1:1 stoichiometric complexes"
same,direct cytotoxicity for gram-negative bacteria,gram-negative bacteria,not directly cytotoxic
